Results taken from patent US20090208447A1.

B1: soluble high affinity c50 ILT-like polypeptide dimer, Q8NHL6 25-217 (receptor)
chain: MHLPKPTLWAEPGSVITMDQPVTLRCQGGQETQEYRLYREKKTAPWITRIPQELVKKGQFPIPSITWEHAGRYRCYYGSDTSQWSASSDPLELVVTGVYIKPTLSAQPSPVVNSGGNVTLQCDSQVAFDGFILCKEGEDEHPQCLNSQPHARGSSRAIFSVGPVSPSRRWWYRCYAYDSNSPYEWSLPSDLLELDVDGC
modifications: here or on the partner: additional C-terminal cysteine linked through maleimide to MAL-PEG-MAL, MW 3.4 KD
B2: soluble high affinity c50 ILT-like polypeptide tetramer, Q8NHL6 25-217 (receptor)
chain: B1 chain
modifications: here or on the partner: additional C-terminal cysteine linked through maleimide to 4arm MAL-PEG, MW 20 KD
B3: soluble high affinity c50 ILT-like polypeptide monomer, Q8NHL6 25-221 (receptor)
chain: MHLPKPTLWAEPGSVITMDQPVTLRCQGGQETQEYRLYREKKTAPWITRIPQELVKKGQFPIPSITWEHAGRYRCYYGSDTSQWSASSDPLELVVTGVYIKPTLSAQPSPVVNSGGNVTLQCDSQVAFDGFILCKEGEDEHPQCLNSQPHARGSSRAIFSVGPVSPSRRWWYRCYAYDSNSPYEWSLPSDLLELDVDG

Biological target: Class I MHC
Assay: cell-based or functional assay

In order of falling IC50 for the inhibition of CTLs (IFN-gamma ELISPOT, MART-1 specific T cell clone KA/C5 with Mel 624 / Mel 526 target cells):
1. B3  800 nM
2. B1  16.2 nM
3. B2  0.7 nM
